The results in this text go back to article doi:10.1101/794511.

Common to all, as to assay: EMSA
The target of one data set is T1, E47 bHLH fragment (Mus musculus, UniProt P15806-2 430-648).
T1 sequence: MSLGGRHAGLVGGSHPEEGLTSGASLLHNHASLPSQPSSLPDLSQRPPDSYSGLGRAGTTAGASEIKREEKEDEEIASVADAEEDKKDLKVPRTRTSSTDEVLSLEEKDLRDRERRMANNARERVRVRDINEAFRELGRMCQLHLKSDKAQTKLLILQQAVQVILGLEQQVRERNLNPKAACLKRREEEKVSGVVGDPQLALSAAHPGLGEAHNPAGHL

For data set [1], the target named is Gsx2 N253A homeodomain fragment (Mus musculus, UniProt P31316 167-305, N253A).
Data set [2] deals with Gsx2 homeodomain fragment (Mus musculus, UniProt P31316 167-305).
Chain of Gsx2 homeodomain fragment (P31316 167-305): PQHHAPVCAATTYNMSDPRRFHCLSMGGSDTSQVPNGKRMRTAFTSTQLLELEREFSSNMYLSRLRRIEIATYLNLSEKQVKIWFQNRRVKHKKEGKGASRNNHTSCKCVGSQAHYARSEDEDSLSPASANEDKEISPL

Chain of Gsx2 N253A homeodomain fragment (P31316 167-305 N253A): as the sequence (P31316 167-305) above, with N87A counted along it

B1: Ac-Luc E2 (dsDNA)
DNA 1: CACCAACAGCTGCGTTTTTAGTGCGGGCGTGGCT
DNA 2: AGCCACGCCCGCACTAAAAACGCAGCTGTTGGTG
Turning to B1, the binding result with E47 bHLH fragment was “binds”.

B2: Gsx2_site (dsDNA)
DNA 1: CAGAGTGTAATTAACATTCAGTAGTGCGGGCGTGGCT
DNA 2: AGCCACGCCCGCACTACTGAATGTTAATTACACTCTG
B2: the binding result in data set [1] was “no binding”; in data set [2] it was “binds”.
